Like-named read-outs stand apart in the source and are kept apart here.

In assay [1] the target is HLA-A*0301 (human).
The target of assay [2] is HLA-A*0301 (human). This is another data set of the same source.
Assay [3] concerns the target HLA-A*0301 (human). The source holds these as a separate data set.

VPGAATPYA (modifications not checked) [… (P. falciparum SSP2, position 522)]: the binding affinity ratio (IC50 of standard peptide / IC50 of test peptide) in the assay with HLA-B*0702 (Human) was found to be 0.0001.

As for IAGGLALLA (modifications not checked) [… (P. falciparum SSP2 position 504, 9-mer, A3 motif peptide)], the binding affinity ratio (IC50 of standard peptide / IC50 of test peptide) with HLA-A*0301 (human) [1] was 0.0002. Take GSGEPLIDVH (modifications not checked) [… (P. falciparum EXP, position 42)]: the binding affinity ratio (IC50 of standard peptide / IC50 of test peptide) in the assay with HLA-A*0301 (human) [2] was 0.0005; in the assay with HLA-A*1101 (Human), 0.0002. On to LALFFIIFNK (modifications not checked) [… (P. falciparum EXP, position 9)], for which the binding affinity ratio (IC50 of standard peptide / IC50 of test peptide) with HLA-A*0301 (human) [3] was 0.014.
